PMC5643395

Assays:
Test in all cases: ensemble FRET (microplate), salt-induced disassembly
Conditions in all cases: Reconstitution by dialysis from 2 M to 5 mM NaCl in 10 mM Tris-HCl, 0.1 mM EDTA; FRET over NaCl titration (FRET buffer and temperature not in the material) …
[1] = test system: histone octamer H2A R81A
[2] = test system: histone octamer H2A R81A/R88A
[3] = test system: histone octamer H2A R88A
[4] = test system: histone octamer H2A R81E
[5] = test system: histone octamer H2A R88E
[6] = test system: histone octamer H2A R81E/R88E

Substance: Widom 601 170 bp
- K half [1]: 632 mM NaCl
- K half [2]: 568 mM NaCl
- K half [3]: 668 mM NaCl
- K half [4]: 468 mM NaCl
- K half [5]: 455 mM NaCl
- K half [6]: 452 mM NaCl
